Laboratory results reported in US7854918B2, “Composition for medical use having improved water-solubility of peptide and metal-labeling efficiency and preparation for medical use comprising metal-labeled peptide” (Nihon Medi-Physics Co., Ltd., priority 2004, dated 2010).
Entries after “also recorded” stand apart in the source; their conditions may differ. Square brackets hold non-standard residues; d marks the D form. Ends that are not written are not given here. * marks the point of attachment. Nle = CCCC[C@H](N)C(=O)O; For = O=C*

Tests used:
Type in all cases: physicochemical
[1] = External observation of peptide sample solutions (presence or absence of white turbidity)
Experimental: (§1) Peptide 1, Peptide 2, and Peptide 3 (100 μg each) were separately added to 410 mM arginine solutions (pH 11) to adjust each total amount to 700 μL. Molarities in these solutions are 94 μM (Peptide 1), 99 μM (Peptide 2), and 161 μM (Peptide 3). […] Then, 200 μL each of the sample solutions was filtered with a filter Millex (registered trademark)-GV (trade name, manufactured by Nihon Millipore) with a pore size of 0.22 μm. The sample solutions before filtration and the sample solutions after filtration were respectively analyzed by reverse-phase HPLC. Peak area percentages were determined from the peak area values of the peptides before and after filtration and used as elution rates. HPLC analytical conditions are shown below.
(§2) For a comparative example, Peptide 1, Peptide 2, and Peptide 3 were separately dissolved in each of water and dimethylsulfoxide (DMSO) to prepare samples having a peptide concentration of 94 μM, 99 μM, or 161 μM, which were studied in the same way as above.
(§3) Arginine, lysine, and histidine were separately dissolved in water to prepare 410 mM arginine solution, 489 mM lysine solution, and 90 mM histidine solution. An aqueous solution of sodium hydroxide and hydrochloric acid were added to these solutions to adjust the pH of the aqueous solutions of lysine and histidine to 8, 9, 10, and 11, and the pH of the aqueous solution of arginine to 8, 8.5, 9, 9.5, 10, and 11. Subsequently, Peptide 1 was added to these aqueous solutions to prepare 94 μM Peptide 1 solutions. […] Then, 200 μL each of the sample solutions was filtered with a filter Millex (registered trademark)-GV (trade name, manufactured by Nihon Millipore) with a pore size of 0.22 μm. The sample solutions before filtration and the sample solutions after filtration were respectively analyzed by reverse-phase HPLC. Peak area percentages were determined from the peak area values of Peptide 1 before and after filtration and used as elution rates. HPLC analytical conditions were the same as the conditions described in Example 1.
(§4) Imidazole was dissolved in water to prepare 1 mM imidazole solution. pH was adjusted to 8, 8.5, and 9 by adding an appropriate amount of hydrochloric acid to this solution. Subsequently, Peptide 1 was added to these imidazole solutions to prepare 94 μM Peptide 1 solutions. […] Then, 200 μL each of the sample solutions was filtered with a filter Millex (registered trademark)-GV (trade name, manufactured by Nihon Millipore) with a pore size of 0.22 μm. The sample solutions before filtration and the sample solutions after filtration were respectively analyzed by reverse-phase HPLC. Peak area percentages were determined from the peak area values of Peptide 1 before and after filtration and used as elution rates. HPLC analytical conditions were the same as the conditions described in Example 1.
(§5) Disodium hydrogen phosphate, sodium dihydrogen citrate, sodium ascorbate, and imidazole were separately dissolved in water to prepare their respective aqueous solutions with pH 9 at concentrations described in Table 4. pH adjustment was performed with hydrochloric acid and an aqueous solution of sodium hydroxide. The above-described aqueous solutions were separately added to the weighed Peptide 1 to prepare 94 μM Peptide 1 solutions. […] These Peptide 1 solutions were compared with the Peptide 1 sample solutions using the respective aqueous solutions of disodium hydrogen phosphate, sodium dihydrogen citrate, and sodium ascorbate used as comparative controls. Subsequently, 200 μL each of the sample solutions was filtered with a filter Millex (registered trademark)-GV (trade name, manufactured by Nihon Millipore) with a pore size of 0.22 μm. The sample solutions before filtration and the sample solutions after filtration were respectively analyzed by reverse-phase HPLC. […]

[2] = Elution rate: reverse-phase HPLC peak area of the peptide after vs before 0.22 μm filtration
Experimental: as §1, §2
Column: Cosmosil 5C18-AR-300 (Manufactured by Nacalai Tesque, 4.6×150 mm)
(§6) Detection: ultraviolet and visible spectrophotometer (detection wavelength: 220 nm)
HPLC system: Alliance (manufactured by Waters, Japan)
Eluant A: 0.1% trifluoroacetic acid (hereinafter, TFA)/purified water
(§7) Eluant B: 0.1% TFA/acetonitrile
(§8) Concentration gradient: 0 min (Eluant B 20%)→25 min (Eluant B 70%)
as §3, §4
as §5, with “controls.” for “controls. Subsequently, 200 μL each of the sample solutions was filtered with a filter Millex (registered trademark)-GV (trade name, manufactured by Nihon Millipore) with a pore size of 0.22 μm. The sample solutions before filtration and the sample solutions after filtration were respectively analyzed by reverse-phase HPLC.”

[3] = Tc-99m labeling at room temperature, radiochemical purity by HPLC
Experimental: Peptide 1 was dissolved in the aqueous solution of arginine with pH 10 obtained in Example 2 to prepare 9.4 μM peptide/arginine solution. 25 μL of a solution of 10 mL of 0.01 M hydrochloric acid supplemented with 5 mg of stannous chloride solution was added to 700 μL of the peptide/arginine solution, and 0.6 to 1.0 GBq of Tc-99m-sodium pertechnetate (hereinafter, 99 mTcO4^−) solution was quickly added thereto to adjust the total amount to 1 mL. After the labeling procedure, the peptide concentration was diluted to 6.6 μM. After shaking for several seconds, the solution was reacted at room temperature. A portion thereof was taken on 10 minutes and 90 minutes after the labeling procedure to determine each Tc-99m labeling rate by HPLC and TLC. The HPLC and TLC analyses were performed under conditions described below.
For comparative controls, Peptide 1 was dissolved in dimethylsulfoxide (DMSO) and then diluted 10-fold with 100 mM phosphate buffer solution (hereinafter, PB) with pH 10 to prepare a peptide/DMSO/PB solution with the final peptide concentration of 9.4 μM. Alternatively, Peptide 1 was dissolved in PB to prepare a peptide/PB solution with the final peptide concentration of 9.4 μM. These solutions were labeled in the same way as in the peptide/arginine solution to determine each Tc-99m labeling rate by HPLC and TLC. After the labeling procedure, the peptide concentration was diluted to 6.6 μM.
Column: Cosmosil 5C18-AR-300 (manufactured by Nacalai Tesque, 4.6×150 mm)
as §6
Radioactivity detector: STEFFI NaI scintillator (manufactured by Raytest)
Eluant A: 0.1% TFA/purified water
as §7, §8

[4] = 1 mM imidazole, pH 8, 94 μM peptide
[5] = 90 mM histidine, pH 9, 94 μM peptide
[6] = 100 mM disodium hydrogen phosphate, pH 9, 94 μM peptide
[7] = 410 mM arginine solution, pH 11, peptide 94/99/161 μM
[8] = 410 mM arginine, pH 9, 94 μM peptide
[9] = 489 mM lysine, pH 9, 94 μM peptide
[10] = aqueous solutions of arginine, lysine and histidine at pH 9 or more
[11] = solvent DMSO, peptide 94/99/161 μM

formyl-Nle-Leu-Phe-Nle-Tyr-Lys(NH2)-ε(-Ser-D-Arg-Asp-Cys-Asp-Asp) (For-[Nle]LF[Nle]YKS[dR]DCDD; also: Lys(NH2): Lys α-carboxamide, Ser-D-Arg-Asp-Cys-Asp-Asp branch on Lys ε-amine) [Peptide 1]
Appearance [1, 4]: colorless and transparent
Appearance ([1]; 1 mM imidazole, pH 8.5, 94 μM peptide): colorless and transparent
Appearance ([1]; 1 mM imidazole, pH 9, 94 μM peptide): colorless and transparent
Appearance [1, 5]: colorless, transparent
Appearance [1, 6]: colorless, transparent
Appearance ([1]; 243 mM sodium dihydrogen citrate, pH 9, 94 μM peptide): white turbidity; also recorded: Whitish
Appearance ([1]; 401 mM sodium ascorbate, pH 9, 94 μM peptide): white turbidity; also recorded: Whitish
Appearance [1, 7]: Colorless,
Appearance ([1]; 410 mM arginine, pH 8, 94 μM peptide): Evident white turbidity
Appearance [1, 8]: colorless, transparent
Appearance [1, 9]: colorless, transparent
Appearance ([1]; aqueous solutions of arginine, lysine and histidine at pH 8.5 or less): Weak white turbidity
Appearance [1, 10]: colorless, transparent
Appearance [1, 11]: Colorless,
Appearance ([1]; solvent water, peptide 94 μM (Peptide 1), 99 μM (Peptide 2), 161 μM (Peptide 3)): Whitish
Elution rate [2, 4]: 64.9%
Elution rate [2, 5]: 85.9%
Elution rate ([2]; 90 mM histidine, pH 10, 94 μM peptide): 90.7%
Elution rate ([2]; 90 mM histidine, pH 11, 94 μM peptide): 96.7%
Elution rate [2, 6]: 53.8%
Elution rate [2, 7]: 100.8%
Elution rate ([2]; 410 mM arginine, pH 8.5, 94 μM peptide): 43.8%
Elution rate [2, 8]: 93.8%
Elution rate ([2]; 410 mM arginine, pH 9.5, 94 μM peptide): 95.4%
Elution rate ([2]; 410 mM arginine, pH 10, 94 μM peptide): 98.8%
Elution rate [2, 9]: 89.0%
Elution rate ([2]; 489 mM lysine, pH 10, 94 μM peptide): 83.6%
Elution rate ([2]; 489 mM lysine, pH 11, 94 μM peptide): 85.9%
Elution rate [2, 10]: ≥ 85%
Elution rate [2, 11]: 98.6%
Radiochemical purity (HPLC) ([3]; Tc-99m labeling in DMSO/phosphate buffer solution pH 10, room temperature, 10 minutes): 72.0%
Radiochemical purity (HPLC) ([3]; Tc-99m labeling in DMSO/phosphate buffer solution pH 10, room temperature, 90 minutes): 75.4%
Radiochemical purity (HPLC) ([3]; Tc-99m labeling in phosphate buffer solution pH 10, room temperature, 10 minutes): 55.3%
